Assay results taken from patent US20240279278A1, “NMU RECEPTOR 2 AGONISTS” (Boehringer Ingelheim International GmbH, priority 2023, published 2024).

T1: human neuromedin U receptor 1 (human, UniProt Q9HB89 24-426)
T1 sequence (looked up): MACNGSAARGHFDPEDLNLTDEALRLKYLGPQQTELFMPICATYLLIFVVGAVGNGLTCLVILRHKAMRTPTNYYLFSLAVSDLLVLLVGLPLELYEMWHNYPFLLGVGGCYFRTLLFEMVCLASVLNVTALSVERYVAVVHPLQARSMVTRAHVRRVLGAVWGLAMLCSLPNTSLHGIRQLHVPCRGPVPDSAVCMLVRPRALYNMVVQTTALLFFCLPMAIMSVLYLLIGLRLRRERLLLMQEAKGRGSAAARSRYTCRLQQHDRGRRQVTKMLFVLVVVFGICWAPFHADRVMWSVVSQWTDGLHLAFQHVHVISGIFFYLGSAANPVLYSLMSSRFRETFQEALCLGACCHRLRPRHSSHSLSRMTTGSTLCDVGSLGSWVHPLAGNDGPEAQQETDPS


target: T1, human neuromedin U receptor 1; assay: cell-based or functional assay

Row | EC50 (hNMUR1) buffer [nM] | Binder
1 | > 1000 | EEEXXXXXXXXXXXXXXXXYFLXXARG (HELM PEPTIDE1{[O=C(O)CCCCCCCCCCCCCCCCCCC(=O)[*:2]].[gGlu].[gGlu].[gGlu].[Sar].[Sar].[Sar].[Sar].[Sar].[Sar].[Sar].[Sar].[Sar].[Sar].[Sar].[Sar].[Sar].[Sar].[Sar].[O=C(CN1CCN(CCN[*:1])CC1)[*:2]].Y.F.[meL].[Nle].[Dab].[meA].R.G.[am]}$$$$V2.0; SMILES CCCC[C@H](NC(=O)[C@H](CC(C)C)N(C)C(=O)[C@H](Cc1ccccc1)NC(=O)[C@H](Cc1ccc(O)cc1)NC(=O)CN1CCN(CCNC(=O)CN(C)C(=O)CN(C)C(=O)CN(C)C(=O)CN(C)C(=O)CN(C)C(=O)CN(C)C(=O)CN(C)C(=O)CN(C)C(=O)CN(C)C(=O)CN(C)C(=O)CN(C)C(=O)CN(C)C(=O)CN(C)C(=O)CN(C)C(=O)CN(C)C(=O)CC[C@H](NC(=O)CC[C@H](NC(=O)CC[C@H](NC(=O)CCCCCCCCCCCCCCCCCCC(=O)O)C(=O)O)C(=O)O)C(=O)O)CC1)C(=O)N[C@@H](CCN)C(=O)N(C)[C@@H](C)C(=O)N[C@@H](CCCNC(=N)N)C(=O)NCC(N)=O) [C20DA-gGlu3-Sar15-AEPipAc-Tyr-Phe-NMeLeu-Nle-Dbu-NMeAla-Arg-Gly-NH2]
2 | 660 | EEEXXXXXXXXXXXXXYFLXXPRG (HELM PEPTIDE1{[O=C(O)CCCCCCCCCCCCCCCCC(=O)[*:2]].[gGlu].[gGlu].[gGlu].[Sar].[Sar].[Sar].[Sar].[Sar].[Sar].[Sar].[Sar].[Sar].[Sar].[Sar].[Sar].[O=C(CN1CCN(CCN[*:1])CC1)[*:2]].Y.F.[meL].[Nle].[Orn].P.R.G.[am]}$$$$V2.0; SMILES CCCC[C@H](NC(=O)[C@H](CC(C)C)N(C)C(=O)[C@H](Cc1ccccc1)NC(=O)[C@H](Cc1ccc(O)cc1)NC(=O)CN1CCN(CCNC(=O)CN(C)C(=O)CN(C)C(=O)CN(C)C(=O)CN(C)C(=O)CN(C)C(=O)CN(C)C(=O)CN(C)C(=O)CN(C)C(=O)CN(C)C(=O)CN(C)C(=O)CN(C)C(=O)CN(C)C(=O)CC[C@H](NC(=O)CC[C@H](NC(=O)CC[C@H](NC(=O)CCCCCCCCCCCCCCCCC(=O)O)C(=O)O)C(=O)O)C(=O)O)CC1)C(=O)N[C@@H](CCCN)C(=O)N1CCC[C@H]1C(=O)N[C@@H](CCCNC(=N)N)C(=O)NCC(N)=O) [C18DA-gGlu3-Sar12-AEPipAc-Tyr-Phe-NMeLeu-Nle-Orn-Pro-Arg-Gly-NH2]
3 | 130 | EEEXXXXXXXXXXYFLXRPRG (HELM PEPTIDE1{[O=C(O)CCCCCCCCCCCCCCCCCCC(=O)[*:2]].[gGlu].[gGlu].[gGlu].[Sar].[Sar].[Sar].[Sar].[Sar].[Sar].[Sar].[Sar].[Sar].[O=C(CN1CCN(CCN[*:1])CC1)[*:2]].Y.F.[meL].[Nle].R.P.R.G.[am]}$$$$V2.0; SMILES CCCC[C@H](NC(=O)[C@H](CC(C)C)N(C)C(=O)[C@H](Cc1ccccc1)NC(=O)[C@H](Cc1ccc(O)cc1)NC(=O)CN1CCN(CCNC(=O)CN(C)C(=O)CN(C)C(=O)CN(C)C(=O)CN(C)C(=O)CN(C)C(=O)CN(C)C(=O)CN(C)C(=O)CN(C)C(=O)CN(C)C(=O)CC[C@H](NC(=O)CC[C@H](NC(=O)CC[C@H](NC(=O)CCCCCCCCCCCCCCCCCCC(=O)O)C(=O)O)C(=O)O)C(=O)O)CC1)C(=O)N[C@@H](CCCNC(=N)N)C(=O)N1CCC[C@H]1C(=O)N[C@@H](CCCNC(=N)N)C(=O)NCC(N)=O) [C20DA-gGlu3-Sar9-AEPipAc-Tyr-Phe-NMeLeu-Nle-Arg-Pro-Arg-Gly-NH2]
4 | 250 | EEEXXXXXXXXXXXXXXXXYFLXRPRG (HELM PEPTIDE1{[O=C(O)CCCCCCCCCCCCCCCCC(=O)[*:2]].[gGlu].[gGlu].[gGlu].[Sar].[Sar].[Sar].[Sar].[Sar].[Sar].[Sar].[Sar].[Sar].[Sar].[Sar].[Sar].[Sar].[Sar].[Sar].[O=C(CN1CCN(CCN[*:1])CC1)[*:2]].Y.F.[meL].[Nle].R.P.R.G.[am]}$$$$V2.0; SMILES CCCC[C@H](NC(=O)[C@H](CC(C)C)N(C)C(=O)[C@H](Cc1ccccc1)NC(=O)[C@H](Cc1ccc(O)cc1)NC(=O)CN1CCN(CCNC(=O)CN(C)C(=O)CN(C)C(=O)CN(C)C(=O)CN(C)C(=O)CN(C)C(=O)CN(C)C(=O)CN(C)C(=O)CN(C)C(=O)CN(C)C(=O)CN(C)C(=O)CN(C)C(=O)CN(C)C(=O)CN(C)C(=O)CN(C)C(=O)CN(C)C(=O)CC[C@H](NC(=O)CC[C@H](NC(=O)CC[C@H](NC(=O)CCCCCCCCCCCCCCCCC(=O)O)C(=O)O)C(=O)O)C(=O)O)CC1)C(=O)N[C@@H](CCCNC(=N)N)C(=O)N1CCC[C@H]1C(=O)N[C@@H](CCCNC(=N)N)C(=O)NCC(N)=O) [C18DA-gGlu3-Sar15-AEPipAc-Tyr-Phe-NMeLeu-Nle-Arg-Pro-Arg-Gly-NH2]
5 | 1000 | EEEXXXXXXXXXXXXXYFLXXPRG (HELM PEPTIDE1{[O=C(O)CCCCCCCCCCCCCCCCCCC(=O)[*:2]].[gGlu].[gGlu].[gGlu].[Sar].[Sar].[Sar].[Sar].[Sar].[Sar].[Sar].[Sar].[Sar].[Sar].[Sar].[Sar].[O=C(CN1CCN(CCN[*:1])CC1)[*:2]].Y.F.[meL].[Nle].[Dab].P.R.G.[am]}$$$$V2.0; SMILES CCCC[C@H](NC(=O)[C@H](CC(C)C)N(C)C(=O)[C@H](Cc1ccccc1)NC(=O)[C@H](Cc1ccc(O)cc1)NC(=O)CN1CCN(CCNC(=O)CN(C)C(=O)CN(C)C(=O)CN(C)C(=O)CN(C)C(=O)CN(C)C(=O)CN(C)C(=O)CN(C)C(=O)CN(C)C(=O)CN(C)C(=O)CN(C)C(=O)CN(C)C(=O)CN(C)C(=O)CC[C@H](NC(=O)CC[C@H](NC(=O)CC[C@H](NC(=O)CCCCCCCCCCCCCCCCCCC(=O)O)C(=O)O)C(=O)O)C(=O)O)CC1)C(=O)N[C@@H](CCN)C(=O)N1CCC[C@H]1C(=O)N[C@@H](CCCNC(=N)N)C(=O)NCC(N)=O) [C20DA-gGlu3-Sar12-AEPipAc-Tyr-Phe-NMeLeu-Nle-Dbu-Pro-Arg-Gly-NH2]
6 | 120 | EEEXXXXXXXXXXXXXYFLXRPRG (HELM PEPTIDE1{[O=C(O)CCCCCCCCCCCCCCCCCCC(=O)[*:2]].[gGlu].[gGlu].[gGlu].[Sar].[Sar].[Sar].[Sar].[Sar].[Sar].[Sar].[Sar].[Sar].[Sar].[Sar].[Sar].[O=C(CN1CCN(CCN[*:1])CC1)[*:2]].Y.F.[meL].[Nle].R.P.R.G.[am]}$$$$V2.0; SMILES CCCC[C@H](NC(=O)[C@H](CC(C)C)N(C)C(=O)[C@H](Cc1ccccc1)NC(=O)[C@H](Cc1ccc(O)cc1)NC(=O)CN1CCN(CCNC(=O)CN(C)C(=O)CN(C)C(=O)CN(C)C(=O)CN(C)C(=O)CN(C)C(=O)CN(C)C(=O)CN(C)C(=O)CN(C)C(=O)CN(C)C(=O)CN(C)C(=O)CN(C)C(=O)CN(C)C(=O)CC[C@H](NC(=O)CC[C@H](NC(=O)CC[C@H](NC(=O)CCCCCCCCCCCCCCCCCCC(=O)O)C(=O)O)C(=O)O)C(=O)O)CC1)C(=O)N[C@@H](CCCNC(=N)N)C(=O)N1CCC[C@H]1C(=O)N[C@@H](CCCNC(=N)N)C(=O)NCC(N)=O) [C20DA-gGlu3-Sar12-AEPipAc-Tyr-Phe-NMeLeu-Nle-Arg-Pro-Arg-Gly-NH2]
